Assay results from PMC5501646.

Tests used:
[1] = molecular target: HfqPae (wild type) (Pseudomonas aeruginosa PAO1) (UniProt Q9HUM0); test: EMSA; details: MST: 10 mM Tris pH 8.0, 40 mM NaCl, 10 mM KCl, 1 mM MgCl2, 0.05% Tween, 25 C; EMSA: 10 mM Tris-HCl pH 8.0, 10 mM MgCl2, 60 mM NaCl, 10 mM NaH2PO4, 10 mM DTT …
[2] = tested on: HfqPae (wild type) (Pseudomonas aeruginosa PAO1); test: MST; details: 1 mM Mg2+, 25 C, MST: 10 mM Tris pH 8.0, 40 mM NaCl, 10 mM KCl, 1 mM MgCl2, 0.05% Tween, EMSA: 10 mM Tris-HCl pH 8.0, 10 mM MgCl2, 60 mM NaCl, 10 mM NaH2PO4, 10 mM DTT …
[3] = molecular target: HfqPaeY25DFlag Y25D (Pseudomonas aeruginosa PAO1) (UniProt Q9HUM0); test: EMSA; details: MST: 10 mM Tris pH 8.0, 40 mM NaCl, 10 mM KCl, 1 mM MgCl2, 0.05% Tween, 25 C; EMSA: 10 mM Tris-HCl pH 8.0, 10 mM MgCl2, 60 mM NaCl, 10 mM NaH2PO4, 10 mM DTT …
[4] = molecular target: HfqPae (wild type) (Pseudomonas aeruginosa PAO1) (UniProt Q9HUM0); test: MST; details: MST: 10 mM Tris pH 8.0, 40 mM NaCl, 10 mM KCl, 1 mM MgCl2, 0.05% Tween, 25 C; EMSA: 10 mM Tris-HCl pH 8.0, 10 mM MgCl2, 60 mM NaCl, 10 mM NaH2PO4, 10 mM DTT …

## GGACUGGUCGCGAGGCCAGCAGGUAAGCUGAGAGACCAAGCAGUCGGACUCUUCAGAUUAUCUCCUCAUCAGGCUAAUCACGGUUUCGACCCGGCACUUUGCCGGGUCUUUUUUUG [PrrF2 sRNA]
[1]
  binding: binds

## antR(-95-+67) mRNA fragment
[2]; 20 nM labelled Hfq
  Kd: 37.3 nM

## GGGAGCCGGCCUUGCGCCGGCAUAUGCCUUGCAUUUUGCUGAAAACAGAGCGCCAGCAGAGCGCACCCCCAGCCUUGCCGUGUCGAGUGCCGAACCAUGAUGAGGACCCAUCCCGUCGCCGAUCGUGGCGAUCUCCAUGCCGACCACCUGGACCUGGCCGCCG [antR(-95-+67) mRNA fragment]
[3]
  binding: no binding
[4]
  Kd: 37.3 nM

## CrcZ RNA
[2]; 30 nM labelled Hfq
  Kd: 7.4 nM
